First the molecules themselves.
B1: His-tagged Rrp41 of S. solfataricus (natural protein, UniProt Q9UXC2 1-248, looked up)
chain: MREMLQVERPKLILDDGKRTDGRKPDELRSIKIELGVLKNADGSAIFEMGNTKAIAAVYGPKEMHPRHLSLPDRAVLRVRYHMTPFSTDERKNPAPSRREIELSKVIREALESAVLVELFPRTAIDVFTEILQADAGSRLVSLMAASLALADAGIPMRDLIAGVAVGKADGVIILDLNETEDMWGEADMPIAMMPSLNQVTLFQLNGSMTPDEFRQAFDLAVKGINIIYNLEREALKSKYVEFKEEGV
B2: His-tagged Csl4 of S. solfataricus (natural protein, UniProt Q980J9 1-189, looked up)
chain: MRTQGELTLPGEELAVIEEFMTGDGTYEQNGIVRAAVVGKIFYDMLNRKSNVLGFKKIIFQHLKKAKYVIGIVNSIKEDSALVSIVGIEERGLASPISAYLHISQISNKKINNVTDAIKIGDVIKAKLLSYTFPLALTIKMKDLGVIYARCSRCGYLLIKQDENNLKCQRCGNIEQRKIGSYMVKKGGN
B3: Strep-tagged Csl4 of S. solfataricus (natural protein, UniProt Q980J9 1-189, looked up)
chain: B2 chain
B4: His-tagged DnaG of S. solfataricus (natural protein, UniProt P95980 1-406, looked up)
chain: MSFQMKYDIRLRFEVEGIVEKTDVIGAIFGQTENLFGDEFDLRELQDKGRLGRIIVEVKTKGGKSEGEIIIPSNLDRIETALIAAMVESVDKVGPYNSKFELIEIEDIRAEKLKKIIERAKGILSSWSKEKSLDIKEVINEISSAVKVGEITEYGPERLPAGPDVDKDPNLIIVEGRADVINLLRYGYKNVIAVEGATSRIPETLINLSKMKKTVIAFLDGDHGGDLILKELLSNNVKIDFVARAPIGREVEELTGKEIAKALSNMMPLTQYLKKVQEAEQAIAKNVIAKEEKPIQSETTQQVVQITLPQNILEEIKKLPGTLEGVLYDNNWNLIEKVQVRDIIPKLEAYEDNKVAYIIFDGVITQRLLDLASQKNIKMIIGARIGGINKRPQNVDILTFTDIISS
B5: His-tagged Rrp4 of S. solfataricus (natural protein, UniProt Q9UXC4 1-249, looked up)
chain: MNMSQSQKIVLQPRSIVVPGELLAEGEFQIPWSPYILKINSKYYSTVVGLFDVKDTQFEVIPLEGSFYYPKINDIVIGLVEDVEIYGWVVDIKAPYKAYLPASNLLGRSINVGEDLRRYLDVGDYVIARIENFDRSIDPVLSVKGKDLGRVSNGIVIDIMPVKVPRVIGKNKSMYETLTSKSGCSIFVANNGRIWATCPSRFSEEILIEAIRKIENESHIKGLTDRIKQFIEEKLGERNASSGETKTNS

Assay [1] addresses T1, His-tagged Rrp42 of S. solfataricus (S. solfataricus, UniProt Q9UXC0 1-275).
T1 sequence (looked up): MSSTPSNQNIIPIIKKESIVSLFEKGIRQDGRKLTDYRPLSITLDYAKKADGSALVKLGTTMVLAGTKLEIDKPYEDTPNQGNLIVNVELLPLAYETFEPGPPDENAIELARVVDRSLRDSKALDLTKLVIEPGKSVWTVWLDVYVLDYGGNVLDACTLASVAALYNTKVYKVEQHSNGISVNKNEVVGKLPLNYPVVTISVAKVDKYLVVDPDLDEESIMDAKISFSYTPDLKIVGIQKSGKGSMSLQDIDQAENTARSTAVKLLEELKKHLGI
In words: SEC. Background: In gel filtration, larger molecules generally elute earlier.

Assay [2] concerns the target T2, Rrp41-Rrp42 hexamer, His-tagged subunits (S. solfataricus, UniProt Q9UXC2 1-248; Q9UXC0 1-275).
T2 sequence (looked up) 1: B1 chain
T2 sequence (looked up) 2: T1 sequence (looked up)
The assay is described as follows: co-IP.

The target in assay [3] is B5. The assay is described as follows: pull-down.
For assay [4], the target named is T3, Strep-Csl4-exosome (Strep-Csl4, His6-Rrp41, His6-Rrp42) (S. solfataricus, UniProt Q9UXC2 1-248; Q9UXC0 1-275; Q980J9 1-189).
T3 sequence (looked up) 1: B1 chain
T3 sequence (looked up) 2: T1 sequence (looked up)
T3 sequence (looked up) 3: B2 chain
In words: pull-down.

With B1, the binding result in assay [1] was “binds”.

In the case of B2, in assay [2], the binding result was “binds”. With B3, the binding result in assay [3] is listed as “binds”.

Regarding B4, in assay [4], the binding result is “binds”. In the case of B5, the binding result in assay [2] is recorded as “binds”.

(Values after PMC3672285 (RNA Biology, 2013).)
